Common to all, as to test: purified protein
What all share (assay type): biochemical, Mycosarcoma maydis

The subject of data set [1] is O=C(O)[C@H](O)CO. Conditions: oxidation, 40°C, assay buffer 50 mM glycine pH 8.5, cofactor not stated for this row, pH 8.5.
Data set [2] concerns NC(=O)c1ccc[n+]([C@@H]2O[C@H](COP(=O)(O)OP(=O)(O)OC[C@H]3O[C@@H](n4cnc5c(N)ncnc54)[C@H](OP(=O)(O)O)[C@@H]3O)[C@@H](O)[C@H]2O)c1. Conditions: oxidation, co-substrate D-glycerate, 40°C, assay buffer 50 mM glycine pH 8.5, pH 8.5, varied: cofactor.
The subject of data set [3] is O=CC(O)C(=O)O. Conditions: reduction, cofactor NADH, 40°C, substrate made by enolization of lithium hydroxypyruvate (about 50% conversion, quantified by HPLC).
Data set [4] deals with NC(=O)C1=CN([C@@H]2O[C@H](COP(=O)(O)OP(=O)(O)OC[C@H]3O[C@@H](n4cnc5c(N)ncnc54)[C@H](O)[C@@H]3O)[C@@H](O)[C@H]2O)C=CC1. Conditions: reduction, co-substrate tartronic semialdehyde, 40°C, varied: cofactor.

The term Km denotes the substrate concentration at which the rate is half of its maximum. The term Vmax denotes the rate approached at saturating substrate. Consider “rTsr1 (Um02592, tartronate semialdehyde reductase) (Mycosarcoma maydis; E78D)”, for which the Michaelis-Menten constant (Km) amounted to 17700 ± 2300 µM in data set [1], 0.30 ± 0.04 µM in data set [2], 190 ± 30 µM in data set [3] and 14.29 ± 3.1 µM in data set [4]. Besides, the Vmax in data set [1] amounted to 1.14 µmol/min/mg; in data set [2], 0.93 µmol/min/mg; in data set [3], 0.17 µmol/min/mg; in data set [4] it was 5.07 µmol/min/mg.
